This note sets out measurements from paper PMC8381054.

In test [1] the target is human CR2(SCR1-4)-Fc (human).
Test [2] addresses recombinant wild-type human C3d with its native thioester cysteine intact (C3d^17C) (human) (UniProt P01024). Description: non-reducing SDS-PAGE; recombinant C3d^17C 'under non-reducing conditions', 'in a similar manner' to C3b (Supplementary Figure S2, not shown).
Test [3] shares this target. Description: SEC; size exclusion chromatography of C3d^17C in solution (Supplementary Figure S2); monomer and disulphide-linked dimer.

As to “chemically-linked dimeric C3d^17C (from UniProt P01024 996-1303)”, in test [1], the geometric mean EC50 of upregulation of CD69 on CD19+ B cells in human PBMC, with anti-IgM F(ab')2 turned out to be 0.047 µM and the geometric mean EC50 of upregulation of CD86 on CD19+ B cells in human PBMC, with anti-IgM F(ab')2 is 0.018 µM.
The like results for “human C3d with a Cys to Ala mutation at position 17(C3d)/1010 (pre-pro C3) (C3d^17A) (from UniProt P01024 996-1303) (domain or fragment)” were, in that order, 0.139 µM and 0.059 µM.
Turning to “recombinant wild-type human C3d with its native thioester cysteine intact (C3d^17C) (from UniProt P01024 996-1303) (domain or fragment)”, the stoichiometry N in test [2] and in test [3] was 2 in each case.
